A word on the Kd: it is the free concentration of one partner at which half of the binding sites on the other are occupied at equilibrium, for simple one-to-one binding. In general, koff refers to the first-order rate constant of dissociation. Read a low koff as a long-lived complex. For orientation: kon means a measure of how fast the partners come together. The low end stands for slower complex formation, the high end for faster complex formation.

The values below come from PMC9273042 (Science Immunology, 2022).

Common to all, as to conditions: both partners purified
Assay [1] addresses soluble RBD (WA1/2020 variant) (SARS-CoV-2, WA1/2020, UniProt P0DTC2). The assay can be described thus: SPR. A general note: In SPR one partner is held on a chip, and binding of the other changes the refractive index at the surface.
For assay [2], the target named is Trimer Spike (soluble, WA1/2020 variant) (SARS-CoV-2, WA1/2020, UniProt P0DTC2). The assay can be described thus: SPR.
In the next assay the target is SARS-CoV-2 S 6P trimer (SARS-CoV-2, Wuhan-Hu-1/WA1 type, S-6P, stabilised). The assay can be described thus: cryo-EM structure.
The next assay addresses T1, RBD, SA variant (Beta) (SARS-CoV-2, UniProt P0DTC2).
T1 construct: source: bought: SinoBio
The assay can be described thus: ELISA. In general terms: In an ELISA, binding on a coated surface is turned into a signal by an enzyme label.

Assay [3] addresses T2, RBD, REF variant (Wuhan-1) (SARS-CoV-2, UniProt P0DTC2).
T2 construct: source: bought: SinoBio
The assay can be described thus: ELISA.

The target in another assay is T3, RBD, UK variant (Alpha) (SARS-CoV-2, UniProt P0DTC2).
T3 construct: source: bought: SinoBio
The assay can be described thus: ELISA.

B1: IMM20190 (antibody, V domains shown)
VH: EVQLVESGGGLVQPGGSLRLSCSASGFTVSSNYMSWVRQAPRKGLEWVSVIYAGGSTFYADSVKGRFTISRDNSKNTLLLQMNSLRAEDTAVYYCARDRGGYLDYWGQGTLVTVSS
VL: DIQMTQSPSSLSASVGDRVTITCRASQGISNYLAWYQQKPGKVPKLLIYAASTLQSGVPSRFSGSGSGTDFTLTISSLQPEDVATYYCQKYNSAPGLTFGGGTKVEIK
In assay [1], B1 showed a Kd of 1.87 nM, a koff of 0.000376 s⁻¹ and a kon of 202000 M⁻¹ s⁻¹. Further, in assay [2], the Kd was found to be 6.59 nM, the koff turned out to be 0.000195 s⁻¹ and the kon came to 29500 M⁻¹ s⁻¹.

B2: IMM20190 Fab (Fab, V domains shown)
VH: EVQLVESGGGLVQPGGSLRLSCSASGFTVSSNYMSWVRQAPRKGLEWVSVIYAGGSTFYADSVKGRFTISRDNSKNTLLLQMNSLRAEDTAVYYCARDRGGYLDYWGQGTLVTVSS
VL: DIQMTQSPSSLSASVGDRVTITCRASQGISNYLAWYQQKPGKVPKLLIYAASTLQSGVPSRFSGSGSGTDFTLTISSLQPEDVATYYCQKYNSAPGLTFGGGTKVEIK
notes: Fab of m2
On to B2, for which, in the assay with SARS-CoV-2 S 6P trimer, the “stoichiometry N” value was 3 Fab:Trimer.

B3: IMM20253 (antibody, V domains shown)
VH: QVQLVESGGGVVQPGRSLRLSCTASGFTFSTYGMHWVRQAPGKGLEWVAVISYDGSSKHYAESVKGRFTISRDNSNNTLYLQMNRLRAEDTAVYYCARDGQPPGWGNYFDYWGQGTLVTVAS
VL: SYVLTQPPSVSVAPGKTARITCGGNGIGSKSVYWYQQKPGQAPEVVVYDDSDRPSGIPERFSGSNSGNTATLTISRVEAGDEADYYCQVWDSSSDPWVFGGGTKLTVL
As to B3, the dissociation constant Kd in assay [1] amounted to 0.157 nM; in assay [2] it was 1.44 nM. The figures for the koff in assay [1] and in assay [2] were 0.000218 s⁻¹ and 0.000117 s⁻¹, respectively. Also, the on-rate (kon) in assay [1] turned out to be 1.39e+06 M⁻¹ s⁻¹; in assay [2] it was 81300 M⁻¹ s⁻¹. Also, the “percent inhibition of ACE2 binding” value with RBD, SA variant (Beta) is not above 40%; in assay [3], not above 40%; with RBD, UK variant (Alpha) it was not above 40%.

B4: IMM20253 Fab (Fab, V domains shown)
VH: QVQLVESGGGVVQPGRSLRLSCTASGFTFSTYGMHWVRQAPGKGLEWVAVISYDGSSKHYAESVKGRFTISRDNSNNTLYLQMNRLRAEDTAVYYCARDGQPPGWGNYFDYWGQGTLVTVAS
VL: SYVLTQPPSVSVAPGKTARITCGGNGIGSKSVYWYQQKPGQAPEVVVYDDSDRPSGIPERFSGSNSGNTATLTISRVEAGDEADYYCQVWDSSSDPWVFGGGTKLTVL
notes: Fab of m3
B4: the “stoichiometry N” value in the assay with SARS-CoV-2 S 6P trimer is 1 Fab:Trimer.

B5: IMM20184 Fab (Fab, V domains shown)
VH: EVQLVESGGGLVQPGGSLRLSCSASGFTFSSFWMSWVRQAPGKGLEWVATIREDGSEKYYVDSVKGRFSISRDNAKNSLYLQMNSLRAEDTAVYYCARSKWLRGSFDYWGQGTLVTVSS
VL: NFMLTQPHSVSESPGKTVTISCTRRSGSIASNYVQWYQQRPGSAPTTVIYEDNQRPSGVPDRFSGSIDSSSNSASLTISGLQTEDEADYYCQSYDSSNPPGASWVFGGGTKLTVL
notes: Fab of m1
For the molecule B5, the “stoichiometry N” value with SARS-CoV-2 S 6P trimer was 3 Fab:Trimer.

B6: IMM20184 (antibody, V domains shown)
VH: EVQLVESGGGLVQPGGSLRLSCSASGFTFSSFWMSWVRQAPGKGLEWVATIREDGSEKYYVDSVKGRFSISRDNAKNSLYLQMNSLRAEDTAVYYCARSKWLRGSFDYWGQGTLVTVSS
VL: NFMLTQPHSVSESPGKTVTISCTRRSGSIASNYVQWYQQRPGSAPTTVIYEDNQRPSGVPDRFSGSIDSSSNSASLTISGLQTEDEADYYCQSYDSSNPPGASWVFGGGTKLTVL
With B6, in assay [1], the Kd stood at 2.2 nM, the koff is 0.00131 s⁻¹ and the kon worked out at 595000 M⁻¹ s⁻¹. In assay [2], this molecule gave a Kd of 7.35 nM, a koff of 0.000229 s⁻¹ and a kon of 31200 M⁻¹ s⁻¹.
